B1: DCX8 (peptide)
peptide: RYKHDIGCDAGVDKKSSSVRGGCGAHSSPPRAGRGPRGTMVSRLAETVESCLAKPHTENSFTNVWKDDKTLDRYANYEGCLWNATGVVVCTGDETQCYGTWVPIGLAIPENEGGGSEGGGSEGGGSEGGGTKPPEYGDTPIPGYTYINPLDGTYPPGTEQNPANPNPSLEESQPLNTFMFQNNRFRNRQGALTVYTGTVTQGTDPVKTYYQYTPVSSKAMYDAYWNGKFRDCAFHSGFNEDPFVCEYQGQSSDLPQPPVNAGGGSGGGSGGGSEGGGSEGGGSEGGGSEGGGSGGGSGSGDFDYEKMANANKGAMTENADENALQSDAKGKLDSVATDYGAAIDGFIGDVSGLANGNGATGDFAGSNSQMAQVGDGDNSPLMNNFRQYLPSLPQSVECRPFVFSAGKPYEFSIDCDKINLFRGVFAFLLYVATFMYVFSTFANILRNKES
notes: Assayed as M13 phage clone displaying the insert
B2: DCX11 (peptide)
peptide: SQGSKQCMQYRTGRLTVGSEYGCGMNPARHATPAYPARLLPRYRAETVESCLAKPHTENSFTNVWKDDKTLDRYANYEGCLWNATGVVVCTGDETQCYGTWVPIGLAIPENEGGGSEGGGSEGGGSEGGGTKPPEYGDTPIPGYTYINPLDGTYPPGTEQNPANPNPSLEESQPLNTFMFQNNRFRNRQGALTVYTGTVTQGTDPVKTYYQYTPVSSKAMYDAYWNGKFRDCAFHSGFNEDPFVCEYQGQSSDLPQPPVNAGGGSGGGSGGGSEGGGSEGGGSEGGGSEGGGSGGGSGSGDFDYEKMANANKGAMTENADENALQSDAKGKLDSVATDYGAAIDGFIGDVSGLANGNGATGDFAGSNSQMAQVGDGDNSPLMNNFRQYLPSLPQSVECRPFVFSAGKPYEFSIDCDKINLFRGVFAFLLYVATFMYVFSTFANILRNKES
notes: as for B1

Assays:
[1] = biological target: T1, D2H receptor domain (human D2H transporter, amino acid residues 387-685), His-tag fusion protein (human, UniProt Q07837 387-685); assay: phage ELISA, OD on D2H over OD on BSA
T1 construct: purified under denaturing conditions; also called recombinant D2H; not shown: poly-histidine tag (pET vector) at the NH2-terminal end
T1 sequence: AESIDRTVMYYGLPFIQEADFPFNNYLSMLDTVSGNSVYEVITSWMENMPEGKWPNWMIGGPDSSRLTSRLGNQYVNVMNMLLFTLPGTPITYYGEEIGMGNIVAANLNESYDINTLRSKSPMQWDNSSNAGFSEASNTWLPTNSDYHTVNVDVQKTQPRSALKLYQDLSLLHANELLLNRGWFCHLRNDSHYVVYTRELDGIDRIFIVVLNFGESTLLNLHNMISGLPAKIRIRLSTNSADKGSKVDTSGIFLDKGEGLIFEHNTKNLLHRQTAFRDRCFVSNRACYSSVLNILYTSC
Protocol: (§1) 6.6. Receptor ELISA Procedure 96 well plates were coated overnight with GIT receptor, BSA and, optionally, IDE (insulin degrading enzyme, an irrelevant His-fusion protein)or hTF. The plates were blocked for one hour with 0.5% BSA-PBS. After clarification, the amplified phage were diluted 1:100 in […] plus 0.05% Tween 20 in PBS and added to the plates. Following incubation of the plates on a rotator for 1 to 2 hours, the plates were washed 5 times with 1% BSA plus 0.05% Tween 20 in PBS. […] After the plates were washed 5 times, as described above, TMB substrate was added to the wells. The plates were read at 650 nm absorbance.
(§2) Binding to fixed Caco-2 cells, D2H and BSA was examined.

[2] = biological target: T1, D2H receptor domain (human D2H …); assay: phage ELISA, plate coated with D2H domain
Protocol: as §1, §2

Row | Binder | D2H/BSA [1] | OD [2]
1 | B1 | 3 ratio | 0.163 OD
2 | B2 | 3 ratio | 0.222 OD

Reference: patent US6703362 (CYTOGEN, dated 2004)
